Test results: patent JP2024051908A

Key:
[1] = molecular target: BA.2スパイクRBD (SARS-CoV-2 Omicron BA.2)
[2] = molecular target: BA.5スパイクRBD (SARS-CoV-2 Omicron BA.5)

Binder	Kd [1]	Kd [2]
MO2 (antibody, V domains shown) VH: EVQLVESGGGLVKPGGSLSLSCVASGFTFSDYRMSWIRQAPGKGLEWVSYISSSSGYKDYADSVKGRFTISRDNAKNSLSLQMNSLRVEDTAVYYCARDVGVVTATPGYWGQGVPVSVSS VL: DIVMTQSPATLSVSPGERATLSCRASQSVGSNLAWYQQKPGQAPRLLIYDTSTRATGVPARFSGSGSGTDFTLTISSLQSEDFAVYLCHQYDQWPPAFGPGTRVDIK	2 nM	
MO1 (antibody, V domains shown) VH: EVQLVESGGGMVQPGRSLRLSCAASGFTFDDYAMHWVRQIPGKGLEWVSGISWNSGDIGYADSVKGRFTISRDNAKNSLHLQMNSLRAEDTALYYCAKDKTYDSPGYFLNSFDYWGQGTLVTVSS VL: DIQMTQSPSSLSASVGDRVTITCRASQGISSYLVWYQQKPGKAPKFLIYAASTLQSGVPSRFSGSGSGTDFTLTISSLQPEDFATYYCQQLYSYPITFGQGTRLEIK	3.3 nM	11 nM
